This experiment deals with PC-12 cells. Kind of experiment: Neurite extension of PC-12 cells by the effect of NGF through membrane. It is filed as cell-based. The following applies: 2 days. The protocol: The vitrigel chamber was hung and held in the container (FIGS. 5, (A) and (B)), and PC-12 cells suspended in a culture medium [Dulbecco's modified Eagle's culture medium (GIBCO BRL #11885-084) containing 10% inactivated fetal bovine serum (Sigma #F2442), 20 mM HEPES (GIBCO BRL #15630), 100 units/ml penicillin, and 100 μg/ml streptomycin] were seeded in 2.5×10^3 cells/cm^2 in the vitrigel chamber. A culture medium (1.2 ml), either containing NGF (upstate #01-125; 5 ng/ml) or by itself, was also injected into the container (FIG. 13).
The same experiment was conducted with the commercially available collagen membrane chamber (Koken; permeable collagen membrane #CM-24 for cell culture).

B1: NGF: NGF (upstate #01-125; 5 ng/ml) added to culture medium, acting on PC-12 cells (protein, UniProt P01139 122-241, looked up)
Beta-nerve growth factor: SSTHPVFHMGEFSVCDSVSVWVGDKTTATDIKGKEVTVLAEVNINNSVFRQYFFETKCRASNPVESGCRGIDSKHWNSYCTTTHTFVKALTTDEKQAAWRFIRIDTACVCVLSRKATRRG
modifications: Beta-nerve growth factor
notes: NGF (upstate #01-125; 5 ng/ml) added to culture medium, acting on PC-12 cells
With B1, the “neurite extension of PC-12 cells (cell morphology, phase-contrast microscope)” value was “neurite extension was not confirmed” (commercially available collagen membrane chamber (Koken #CM-24), NGF in container) and “neurite extension was confirmed” (vitrigel chamber, NGF 5 ng/ml in culture medium in container, acting through vitrigel membrane).
